Conditions: Sus scrofa, pH 7, 20 °C, GdnHCl, Fluorescence, PIPES 50 mM, reversible: yes

| Substance | ddG of mutation (higher = less stable) (structure 1P2P) [kcal/mol] | denaturant m value (structure 1P2P) [kcal/mol/M] | denaturant midpoint (higher = more stable) (structure 1P2P) [M] | unfolding free energy (structure 1P2P) [kcal/mol] | denaturant m value [kcal/mol/M] | denaturant midpoint (higher = more stable) [M] | unfolding free energy [kcal/mol] |
| --- | --- | --- | --- | --- | --- | --- | --- |
| Phospholipase A2, major isoenzyme H70Q, P00592 | 1.03 | 0.91 | 6.1 | 5.48 |  |  |  |
| Phospholipase A2, major isoenzyme H70N, P00592 | 2.28 | 0.84 | 5.1 | 4.23 |  |  |  |
| Phospholipase A2, major isoenzyme wild type, P00592 |  |  |  |  | 1 | 6.4 | 6.51 |
| Phospholipase A2, major isoenzyme H70K, P00592 | 3.21 | 0.65 | 5.2 | 3.3 |  |  |  |

Source: FireProtDB (doi:10.1093/protein/12.6.497)
